According to the supplement of paper PMC9170038:

Test system: MS2 coat protein
Assay: apparent KD of MS2 coat protein; designed switch direction (-1 OFF switch, 1 ON switch): 1; higher = weaker reporter binding
Method in brief: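 Designed RNA switches with common flanks were transcribed on Illumina chips by stalled E. coli RNA polymerase and titrated with SNAP-549-labelled MS2 coat protein, from 0.7 or 1.5 nM doubling to 3 µM, in Tris-HCl pH 7.5 buffer with KCl, MgCl2, BSA, DTT, tRNA and Tween-20. Steps lasted 0.8–1.5 h (lowest) to 10–20 min (highest). Titrations ran without input, with 200 uM small-molecule ligand, or with an oligonucleotide input. Normalised cluster fluorescence was curve-fitted, and apparent KD is the per-design median over clusters.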

[1] = input ligand: microRNA oligo, concentration not stated
[2] = Eterna round: R95, input ligand: FMN 200 uM
[3] = Eterna round: R95, input ligand: microRNA oligo, concentration not stated
[4] = Eterna round: R95, input ligand: none

## GGUUGUUAGUGAGGAUAUACGUACACUCUACAUGAGGAUCACCCAUGUUUUGCCCUUGAUUGUUGGUAGAAGGCACUUGGUUAU [JR_SSNG2_Sub050] (Eterna round: R96, puzzle: Same State NG 2)
Input ligand: FMN 200 uM
  apparent KD of MS2 coat protein: 40.7 nM
[1]
  apparent KD of MS2 coat protein: 84.7 nM
Input ligand: none
  apparent KD of MS2 coat protein: 87.3 nM

## GUGGCGGGUUGAGGAUAUUGGUUGCCGCUGUUUUACAUGAGGAUCACCCAUGUGGGUUGCGGUUUCGAGAAGGGCGGUUGCUGG [salish99_SSNG2_r04_056] (Eterna round: R96, puzzle: Same State NG 2)
Input ligand: FMN 200 uM
  apparent KD of MS2 coat protein: 18.2 nM
[1]
  apparent KD of MS2 coat protein: 14.6 nM
Input ligand: none
  apparent KD of MS2 coat protein: 24 nM

## AUAGUUGCCGAAGGAUAUGAUGAGGAUCACCCAUCAGAAGGUUGGCUAUUGGGUGGACAUGAGGAUCACCCAUGUCCUUUGGUA (Eterna round: R96, puzzle: Same State NG 1)
Input ligand: FMN 200 uM
  apparent KD of MS2 coat protein: 95.1 nM
[1]
  apparent KD of MS2 coat protein: 119 nM
Input ligand: none
  apparent KD of MS2 coat protein: 147 nM

## CCGUAAAUGGAAGGAUAUGGAGCCUUAUUGGCUCCAGAAGGUUCAAUAACAUGAGGAUCACCCAUGUCGGCGGUCAAUAGACCG [Eli NG1ss - 79] (Eterna round: R96, puzzle: Same State NG 1)
Input ligand: FMN 200 uM
  apparent KD of MS2 coat protein: 15.3 nM
[1]
  apparent KD of MS2 coat protein: 33.7 nM
Input ligand: none
  apparent KD of MS2 coat protein: 41.7 nM

## UGAAUAGUCACAGGAUAUCAUGCGAAAAUUGCGUGAGAAGGGUGGAUGUUGUGCUCAAAGUUCUACAUGAGGAUCACCCAUGUU [SameState NG1 #43] (Eterna round: R96, puzzle: Same State NG 1)
Input ligand: FMN 200 uM
  apparent KD of MS2 coat protein: 61.2 nM
[1]
  apparent KD of MS2 coat protein: 64 nM
Input ligand: none
  apparent KD of MS2 coat protein: 63.3 nM

## UGAAUAUUCACAGGAUAUGAGUUGUAAAGUGGAUCAGAAGGGUGGGUGUUUUGCACGGUGUGUUACAUGAGGAUCACCCAUGUU [SameState NG1 #24] (Eterna round: R96, puzzle: Same State NG 1)
Input ligand: FMN 200 uM
  apparent KD of MS2 coat protein: 205 nM
[1]
  apparent KD of MS2 coat protein: 232 nM
Input ligand: none
  apparent KD of MS2 coat protein: 627 nM

## GGUUUAGUCAAGCGCAGUUGCACUUGAAAACAUGAGGAUCACCCAUGUUUGGGACAAGCUUUGCUCCUCGUCUUUCC [Dicebior] (puzzle: Sensor for hsa-mir-208a)
[2]
  apparent KD of MS2 coat protein: 194 nM
[3]
  apparent KD of MS2 coat protein: 78.2 nM
[4]
  apparent KD of MS2 coat protein: 386 nM

## GGAAACAAGAGAGGAUAUGCAGAGGAUCACCCUGCAGAAGGCUCAAAAGAGAGGAUAUGCAGAGGAUCACCCUGCAGAAGGCUC [pwkr ssNG DX.27] (Eterna round: R96, puzzle: Same State NG 1)
Input ligand: FMN 200 uM
  apparent KD of MS2 coat protein: 17.8 nM
[1]
  apparent KD of MS2 coat protein: 11.2 nM
Input ligand: none
  apparent KD of MS2 coat protein: 21.4 nM

## AGCAGAGAAAUAGGAUAUGGCUGAGACAUGACGGCGGUACAUGAGGAUCACCCAUGUCCGCAAAGCCAGAAGGGUUUUGAAUGU [Ticecexe] (Eterna round: R96, puzzle: Same State NG 2)
Input ligand: FMN 200 uM
  apparent KD of MS2 coat protein: 13.7 nM
[1]
  apparent KD of MS2 coat protein: 16.5 nM
Input ligand: none
  apparent KD of MS2 coat protein: 33.4 nM

## AAAAGAAACGCAGGAUAUGCACAUGAGGAUCACCCAUGUCCCACGGGCUCGACCGAGCCUGUGAAGCAGAAGGGUGUAAGAAAA [Erleusor] (Eterna round: R96, puzzle: Same State NG 2)
Input ligand: FMN 200 uM
  apparent KD of MS2 coat protein: 54.1 nM
[1]
  apparent KD of MS2 coat protein: 208 nM
Input ligand: none
  apparent KD of MS2 coat protein: 74.7 nM

## GUGCGGGUAAGAGGAUAUACAAAUUCUCGUUCUGAGACGAGAACAUGAGGAUCACCCAUGUCUAAGUAGAAGGUUUCAGGCACC [Eternabot solution 28] (Eterna round: R96, puzzle: Same State NG 2)
Input ligand: FMN 200 uM
  apparent KD of MS2 coat protein: 21.3 nM
[1]
  apparent KD of MS2 coat protein: 18.2 nM
Input ligand: none
  apparent KD of MS2 coat protein: 23 nM

## UCUUGGUUUUUGCUCGUUUUUUGUGUUGAACAUGAGGAUCACCCAUGUAUUGUACGGUCCGAUUUAGUAGUGGUCCG [JMF 18] (puzzle: Sensor for hsa-mir-208a)
[2]
  apparent KD of MS2 coat protein: 26 nM
[3]
  apparent KD of MS2 coat protein: 14.5 nM
[4]
  apparent KD of MS2 coat protein: 26.9 nM

## GUGGUCAGACAUGAGGAUCACCCAUGUGGAAUAAAUAAGGGAAAGGAUAUAAAAUAUAGGAUAUAUUAGAAGGUUCGGUUGGUG (Eterna round: R96, puzzle: Same State NG 3)
Input ligand: FMN 200 uM
  apparent KD of MS2 coat protein: 131 nM
[1]
  apparent KD of MS2 coat protein: 83.9 nM
Input ligand: none
  apparent KD of MS2 coat protein: 89.6 nM

## AGUCCAGCCUGAGCUGGACAAAAGCAUGUACAUGAGGAUCACCCAUGUCAUGUACAAGUUUUUUGCUCGUCUUAAUA [Zipper 49 - 12] (puzzle: Sensor for hsa-mir-208a)
[2]
  apparent KD of MS2 coat protein: 46.9 nM
[3]
  apparent KD of MS2 coat protein: 11.1 nM
[4]
  apparent KD of MS2 coat protein: 53.1 nM

## GAGUGGCGGUUAGGAUAUACAGUGAUAAUGAUAGUAGAAGGAACUGACAUGAGGAUCACCCAUGUAGGACUAAUCCAGAGAGAG [Parity 31 - Jieux - Same State NG 1] (Eterna round: R96, puzzle: Same State NG 1)
Input ligand: FMN 200 uM
  apparent KD of MS2 coat protein: 43.6 nM
[1]
  apparent KD of MS2 coat protein: 21.7 nM
Input ligand: none
  apparent KD of MS2 coat protein: 33.7 nM

## GGCGAACAGGCUAACAUGAGGAUCACCCAUGUGGACUUCGUGUAGGAUAUCGGGAAGGAGGAAACCGAGAAGGGCGAAGAAGCC [AK SSNG3-V2-49.1] (Eterna round: R96, puzzle: Same State NG 3)
Input ligand: FMN 200 uM
  apparent KD of MS2 coat protein: 55.2 nM
[1]
  apparent KD of MS2 coat protein: 48.1 nM
Input ligand: none
  apparent KD of MS2 coat protein: 55.1 nM

## UGGUACAUGGGAGGAUAUCAUGUAGAGACAUGAGGAUCACCCAUGUAGAUGGCCGGUAACCGGGAUGAGAAGGCCCAUGUACCU [JL SSNG1 3.65] (Eterna round: R96, puzzle: Same State NG 2)
Input ligand: FMN 200 uM
  apparent KD of MS2 coat protein: 161 nM
[1]
  apparent KD of MS2 coat protein: 56.3 nM
Input ligand: none
  apparent KD of MS2 coat protein: 151 nM

## GUUACAUGAGGAUCACCCAUGUAUGUGUGGGAGUAAGUGUCUUAGGAUAUCUAGUAUUUAAAUUAAGAGAAGGAAGAUUGUUGU [JMF's solution 9] (Eterna round: R96, puzzle: Same State NG 3)
Input ligand: FMN 200 uM
  apparent KD of MS2 coat protein: 117 nM
[1]
  apparent KD of MS2 coat protein: 84.8 nM
Input ligand: none
  apparent KD of MS2 coat protein: 113 nM

## GUGGUCAGACAUGAGGAUCACCCAUGUGGAAUAAAUAAGGGACAGGAUAUUUAAUAUAGGAUAUAGAAGAAGGGUUGGUUGGUG (Eterna round: R96, puzzle: Same State NG 3)
[1]
  apparent KD of MS2 coat protein: 88.7 nM

## ACAUGAGAGAAAGGAUAUCUUGUACCUACAUGUGACAUGAGGAUCACCCAUGUGGUAAGUAUGACAGAGAAGGUUCAGAUAUGU [Equivalance 71 - Jieux - Same State NG 2] (Eterna round: R96, puzzle: Same State NG 2)
Input ligand: FMN 200 uM
  apparent KD of MS2 coat protein: 38.7 nM
[1]
  apparent KD of MS2 coat protein: 61.1 nM
Input ligand: none
  apparent KD of MS2 coat protein: 86.3 nM

## CUGAGCAGUCAAGGAUAUCACGUCGUUUAGACGUGAGAAGGUGAUUAAUACAUGAGGAUCACCCAUGUAAUACAUGAAGCUCAG [SSNG1/11-A3] (Eterna round: R96, puzzle: Same State NG 1)
Input ligand: FMN 200 uM
  apparent KD of MS2 coat protein: 20.9 nM
[1]
  apparent KD of MS2 coat protein: 30.9 nM
Input ligand: none
  apparent KD of MS2 coat protein: 42.5 nM

## GAAAUAUAACAUGAGGAUCACCCAUGUACAUUGGUACGGCGGAAGGAUAUGAAAGACAUGGUCAAUUAGAAGGUCCUAUCAAAA [Eternabot solution 50] (Eterna round: R96, puzzle: Same State NG 3)
Input ligand: FMN 200 uM
  apparent KD of MS2 coat protein: 102 nM
[1]
  apparent KD of MS2 coat protein: 114 nM
Input ligand: none
  apparent KD of MS2 coat protein: 139 nM

## UUGUUUCGUCAUUAACAUGAGGAUCACCCAUGUAUUGACCCAGAGGAUAUGCAUGUUUGAUUGUAGCAGAAGGCUGAUUGUUGU [JR_SSNG3_Sub032] (Eterna round: R96, puzzle: Same State NG 3)
Input ligand: FMN 200 uM
  apparent KD of MS2 coat protein: 13.7 nM
[1]
  apparent KD of MS2 coat protein: 27 nM
Input ligand: none
  apparent KD of MS2 coat protein: 26.3 nM

## ACCCGCGACGGAGGAUAUGGGCACUCGGCGGAAUAAACCGCCAUAACAUGAGGAUCACCCAUGUCCCAGAAGGCCGUCGCAAUC [Zaonesdive] (Eterna round: R96, puzzle: Same State NG 2)
Input ligand: FMN 200 uM
  apparent KD of MS2 coat protein: 107 nM
[1]
  apparent KD of MS2 coat protein: 303 nM
Input ligand: none
  apparent KD of MS2 coat protein: 2620 nM

## UUAUAACAUGAGGAUCACCCAUGUCAACAAAGUCGAGGAUAUGGGCAUAGAUUAUAAGAACCAGAAGGCGAAUAUU [Mat - Same State 1 - Mod of UCT - D40] (puzzle: Same State 1)
[2]
  apparent KD of MS2 coat protein: 51.8 nM
[3]
  apparent KD of MS2 coat protein: 117 nM
[4]
  apparent KD of MS2 coat protein: 118 nM

## UUAAAACAUGAGGAUCACCCAUGUCAACAAAGUCGAGGAUAUGGGCAAAUAAAAUAAGAACCAGAAGGCGAAUAAA [salish99_SS1_r3_002] (puzzle: Same State 1)
[2]
  apparent KD of MS2 coat protein: 39.5 nM
[3]
  apparent KD of MS2 coat protein: 245 nM
[4]
  apparent KD of MS2 coat protein: 412 nM

## UGUUGUAUUACAGGAUAUCUAUUGUUUUUUUUUAGAGAAGGGUAUUCACAUGAGGAUCACCCAUGUAUAUACGAGGAAGUUGUG [JMF's solution 79] (Eterna round: R96, puzzle: Same State NG 1)
[1]
  apparent KD of MS2 coat protein: 43.2 nM

## GCUAGAAUAAACGCCUACAUGAGGAUCACCCAUGUAUGUAGGCAGGAUAUCGUUUGCAAAGCAAACGAGAAGGGCCUUACUAGC [Mat - Same State NG 3 - JL Mod - D32] (Eterna round: R96, puzzle: Same State NG 3)
Input ligand: FMN 200 uM
  apparent KD of MS2 coat protein: 20.2 nM
[1]
  apparent KD of MS2 coat protein: 22.2 nM
Input ligand: none
  apparent KD of MS2 coat protein: 37.1 nM

## UAUCCAUAGAUAGGAUAUCAGUAUACAUGAGGAUCACCCAUGUUAUAUUUGGUUUUAAGUUAGUCUGAGAAGGAUCUUGAUGAA [SameState NG2 #3] (Eterna round: R96, puzzle: Same State NG 2)
Input ligand: FMN 200 uM
  apparent KD of MS2 coat protein: 12.4 nM
[1]
  apparent KD of MS2 coat protein: 11.1 nM
Input ligand: none
  apparent KD of MS2 coat protein: 15.6 nM

## UGAACCUUCACAGGAUAUCAUGCGAAAAUUGCGUGAGAAGGGUGAAUAUGGUGUUCAUAGUUGCACAUGAGGAUCACCCAUGUA [SameState NG1 #53] (Eterna round: R96, puzzle: Same State NG 1)
[1]
  apparent KD of MS2 coat protein: 92.3 nM

## UAGAGAGGAAGCGAGGAUAUCGUGUGAGGAACAUGAGGAUCACCCAUGUGUGAUGUUGAGAGAGACGAGAAGGCGCAGGAAAUUA [JR_SS2_Sub082] (puzzle: Same State 2)
[3]
  apparent KD of MS2 coat protein: 116 nM
